The source of these data is US20150030597A1 (US Dept. of Health and Human Services, published 2015).

The target of assay [1] is T1, soluble mouse VEGFR2-hIgG.FC fusion protein (mouse; human, UniProt P35918 20-762).
T1 construct: Bought from R&D Systems; also called soluble mouse VEGFR-2-human IgG-FC fusion protein; mVEGFR2-hIgG.FC; not shown: human IgG Fc
The experiment in a line: flow cytometry, transduced mouse CD3+CD4+ T cells stained with soluble mVEGFR2-hIgG.FC and PE anti-human IgG-FC; mean ± SEM of 5 experiments. As for the experimental part:
(§1) Mouse T cells were retrovirally transduced with retroviral vectors DC101-CD828Z or DC101-CD828BBZ CAR as described in Example 5 or were transduced with the DC101-CD8 or SP6-CD828BBZ vectors described in Comparative Example 1, or with an empty MSGV vector (lacking any of the CAR sequences). Surface expression of the retrovirally encoded transgene products in transduced CD3⁺ primary mouse T cells was determined by flow cytometry using the soluble mouse VEGFR-2-human IgG-FC fusion protein and PE-conjugated anti-human IgG-FC.
(§2) On day 4 post-transduction, cells were costained with anti-mouse CD8 antibody and CAR-specific reagents and were FACS analysed to determine the expression of transgene products in CD8⁺and CD8″ T cell subsets. Detection of DC101 CAR on retrovirally transduced mouse T cells on day 4 after transduction was achieved by indirect immunofluorescence with soluble mouse (m) VEGFR2-hIgG.FC fusion protein (R&D Systems®, Minneapolis, […].), followed by staining with a phycoerythrin (PE)-labeled goat anti-human IgG-FC antibody (eBioscience™, San Diego, Calif.). Briefly, 5×10⁵ cells were incubated with 2 μg of bovine serum albumin (BSA; Sigma-Aldrich®) or species-specific soluble mVEGFR2-hIgG.FC protein at 4° C. for 45 min. Cells were then washed in FACS buffer (phosphate buffered saline containing 1% FBS) and stained with PE-conjugated anti human IgG-FC (αchIgG.FC). At this step, mouse T cells were co-stained with peridinin chlorophyll (PerCP)-labeled anti-mouse CD8 (BD Pharmingen, San Diego, Calif.) at appropriate concentrations recommended by the manufacturer at 4° C. for 20-30 min, then washed and resuspended in FACS buffer. Cells incubated with 2 μg bovine serum albumin (BSA) and subsequently stained with PE-conjugated anti human IgG-FC (αhIgG-FC) and PerCP labeled anti-mouse CD8 served as a control.

In assay [2] the target is T1, soluble mouse VEGFR2-hIgG.FC fusion …. The experiment in a line: flow cytometry, transduced mouse CD3+CD8+ T cells stained with soluble mVEGFR2-hIgG.FC and PE anti-human IgG-FC; mean ± SEM of 5 experiments. As for the experimental part:
as §1, §2
Background: Flow cytometry measures light scatter and fluorescence of single cells or particles in a stream.

T1 sequence (P35918 20-762 limits assumed): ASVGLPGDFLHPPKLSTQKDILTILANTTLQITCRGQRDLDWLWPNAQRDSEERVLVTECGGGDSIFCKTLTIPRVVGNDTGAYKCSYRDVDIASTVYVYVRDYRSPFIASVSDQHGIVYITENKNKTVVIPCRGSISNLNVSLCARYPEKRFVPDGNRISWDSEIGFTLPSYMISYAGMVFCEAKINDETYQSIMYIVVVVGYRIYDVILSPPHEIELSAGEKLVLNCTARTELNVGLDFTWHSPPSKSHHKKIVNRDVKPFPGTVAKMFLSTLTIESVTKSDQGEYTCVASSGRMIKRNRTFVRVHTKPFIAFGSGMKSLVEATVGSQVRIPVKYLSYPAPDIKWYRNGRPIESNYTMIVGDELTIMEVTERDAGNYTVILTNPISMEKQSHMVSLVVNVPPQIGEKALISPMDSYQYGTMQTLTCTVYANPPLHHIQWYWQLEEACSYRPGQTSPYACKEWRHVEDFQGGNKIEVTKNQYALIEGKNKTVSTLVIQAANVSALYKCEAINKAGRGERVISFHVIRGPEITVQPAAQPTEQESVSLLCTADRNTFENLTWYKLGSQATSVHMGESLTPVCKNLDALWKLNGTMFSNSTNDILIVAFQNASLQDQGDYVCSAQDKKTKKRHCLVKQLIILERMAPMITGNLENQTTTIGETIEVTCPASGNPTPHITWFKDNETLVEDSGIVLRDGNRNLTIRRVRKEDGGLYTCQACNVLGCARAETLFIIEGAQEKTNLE

B1: DC101-CD8 (other)
chain: EVQLVETGGGLVQPGNSLKLSCATSGFIFSTTWMNWIRQTPGKRLEWLAQIEDKSNNYFISYSESVKGRFTISRDDSKSSVYLQMNNLKEEDTAIYYCSWKYRSNYYFDYWGQGVMVTVSSGSTSGSGKPGSGEGSDIVLTQSPALAVSLEQRATISCKTSQNVDYYGISYLHWYQQKPGQQPKLLIYEGSNLASGIPARFSGSGSGTDFTLTIDPVEADDIVTYYCQQSKDYPYTFGAGTKLELKTTTKPVLRTPSPVHPTGTSQPQRPEDCRPRGSVKGTGLDFACDIYIWAPLAGICVALLLSLIITLICYHRSR
notes: also called MSGV-DC101-CD8
For B1, in assay [1], the “% Transduction (percent transgene positive cells)” value was determined as 83.2% and the “Mean Fluorescence Intensity (MFI)” value is 114. Besides, in assay [2], the “% Transduction (percent transgene positive cells)” value was 80.8% and the “Mean Fluorescence Intensity (MFI)” value came out at 108.

B2: DC101-CD828BBZ CAR (other)
chain: EVQLVETGGGLVQPGNSLKLSCATSGFIFSTTWMNWIRQTPGKRLEWLAQIEDKSNNYFISYSESVKGRFTISRDDSKSSVYLQMNNLKEEDTAIYYCSWKYRSNYYFDYWGQGVMVTVSSGSTSGSGKPGSGEGSDIVLTQSPALAVSLEQRATISCKTSQNVDYYGISYLHWYQQKPGQQPKLLIYEGSNLASGIPARFSGSGSGTDFTLTIDPVEADDIVTYYCQQSKDYPYTFGAGTKLELKAAATTTKPVLRTPSPVHPTGTSQPQRPEDCRPRGSVKGTGLDFACDIYIWAPLAGICVALLLSLIITLICYHRSRNSRRNRLLQVTTMNMTPRRPGLTRKPYQPYAPARDFAAYRPKWIRKKFPHIFKQPFKKTTGAAQEEDACSCRCPQEEEGGGGGYELRAKFSRSAETAANLQDPNQLYNELNLGRREEYDVLEKKRARDPEMGGKQQRRRNPQEGVYNALQKDKMAEAYSEIGTKGERRRGKGHDGLYQGLSTATKDTYDALHMQTLAPR
notes: also called DC101-mCD828BBZ; MSGV-DC101-CD828BBZ
On to B2, for which the results for the “% Transduction (percent transgene positive cells)” value in assay [1] and in assay [2] were 79% and 78.2%, respectively. Besides, the “Mean Fluorescence Intensity (MFI)” value in assay [1] came out at 76.5; in assay [2] it was 75.8.

B3: DC101-CD828Z CAR (other)
chain: EVQLVETGGGLVQPGNSLKLSCATSGFIFSTTWMNWIRQTPGKRLEWLAQIEDKSNNYFISYSESVKGRFTISRDDSKSSVYLQMNNLKEEDTAIYYCSWKYRSNYYFDYWGQGVMVTVSSGSTSGSGKPGSGEGSDIVLTQSPALAVSLEQRATISCKTSQNVDYYGISYLHWYQQKPGQQPKLLIYEGSNLASGIPARFSGSGSGTDFTLTIDPVEADDIVTYYCQQSKDYPYTFGAGTKLELKAAATTTKPVLRTPSPVHPTGTSQPQRPEDCRPRGSVKGTGLDFACDIYIWAPLAGICVALLLSLIITLICYHRSRNSRRNRLLQVTTMNMTPRRPGLTRKPYQPYAPARDFAAYRPRAKFSRSAETAANLQDPNQLYNELNLGRREEYDVLEKKRARDPEMGGKQQRRRNPQEGVYNALQKDKMAEAYSEIGTKGERRRGKGHDGLYQGLSTATKDTYDALHMQTLAPR
notes: Chimeric antigen receptor on transduced primary mouse T cells: same as DC101-CD828BBZ but without the 4-1BB signalling domain; also called DC101-mCD828Z; MSGV-DC101-CD828Z
Turning to B3, in assay [1], the “% Transduction (percent transgene positive cells)” value worked out at 84% and the “Mean Fluorescence Intensity (MFI)” value worked out at 95. In addition, in assay [2], the “% Transduction (percent transgene positive cells)” value was 86% and the “Mean Fluorescence Intensity (MFI)” value amounted to 92.
